Experimental data reported in PMC10397247.
Each block holds one binder with its values, some of them ahead of it.

How the values were obtained:
[1] = target: T1, Core_NNNN-es_KKEE; test: two-hybrid library CCmax; conditions: mean of both orientations;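 note: natural log of median RNA to DNA barcode read ratio; higher means stronger binding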
T1 chain: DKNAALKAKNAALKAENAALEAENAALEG

[2] = target: T2, Core_NIIN-es_KKKK; test: two-hybrid library CCmax; conditions: mean of both orientations;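 note: natural log of median RNA to DNA barcode read ratio; higher means stronger binding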
T2 chain: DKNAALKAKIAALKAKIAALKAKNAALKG

[3] = target: T3, Core_INII-es_KEKK; test: two-hybrid library CCmax; conditions: mean of both orientations;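 note: natural log of median RNA to DNA barcode read ratio; higher means stronger binding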
T3 chain: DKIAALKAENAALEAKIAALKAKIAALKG

[4] = target: T4, Core_NNNN-es_KEKE; test: two-hybrid library CCmax; conditions: mean of both orientations;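 note: natural log of median RNA to DNA barcode read ratio; higher means stronger binding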
T4 chain: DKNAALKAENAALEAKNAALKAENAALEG

[5] = target: T5, Core_INNN-es_KKKK; test: two-hybrid library CCmax; conditions: mean of both orientations;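 note: natural log of median RNA to DNA barcode read ratio; higher means stronger binding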
T5 chain: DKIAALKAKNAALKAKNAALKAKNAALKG

[6] = target: T6, P4SC1; test: two-hybrid library CCNG1;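 note: natural log of median RNA to DNA barcode read ratio; higher means stronger binding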
T6 chain: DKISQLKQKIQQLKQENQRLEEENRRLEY

[7] = target: T6, P4SC1; test: two-hybrid library CCmax; conditions: mean of both orientations
[8] = target: T7, Core_INNN-es_KKKE; test: two-hybrid library CCmax; conditions: mean of both orientations
T7 chain: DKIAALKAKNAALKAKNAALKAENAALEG

[9] = target: T8, Core_ININ-es_KKEE; test: two-hybrid library CCmax; conditions: mean of both orientations
T8 chain: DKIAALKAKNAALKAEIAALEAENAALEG

[10] = target: T9, Core_IINN-es_KEEK; test: two-hybrid library CCmax; conditions: mean of both orientations
T9 chain: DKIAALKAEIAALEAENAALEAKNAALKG

[11] = target: T10, Core_INNI-es_KKEK; test: two-hybrid library CCmax; conditions: mean of both orientations
T10 chain: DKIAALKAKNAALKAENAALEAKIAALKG

[12] = target: T11, Core_INNN-es_KKEK; test: two-hybrid library CCmax; conditions: mean of both orientations
T11 chain: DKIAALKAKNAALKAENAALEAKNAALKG

[13] = target: T12, 4H58-AA; test: two-hybrid library CCmax; conditions: mean of both orientations
T12 chain: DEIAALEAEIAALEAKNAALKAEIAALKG

[14] = target: T13, 4H1257-AA; test: two-hybrid library CCmax; conditions: mean of both orientations
T13 chain: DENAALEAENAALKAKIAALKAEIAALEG

[15] = target: T14, 4H486-AA; test: two-hybrid library CCmax; conditions: mean of both orientations
T14 chain: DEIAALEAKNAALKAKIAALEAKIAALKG

[16] = target: T15, 4H3365-AA; test: two-hybrid library CCmax; conditions: mean of both orientations
T15 chain: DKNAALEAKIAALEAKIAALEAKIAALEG

[17] = target: T16, 4H140-AA; test: two-hybrid library CCmax; conditions: mean of both orientations
T16 chain: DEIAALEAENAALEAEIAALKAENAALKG

[18] = target: T17, 4H535-AA; test: two-hybrid library CCmax; conditions: mean of both orientations
T17 chain: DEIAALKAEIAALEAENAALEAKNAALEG

[19] = target: T18, 4H1136-AA; test: two-hybrid library CCmax; conditions: mean of both orientations
T18 chain: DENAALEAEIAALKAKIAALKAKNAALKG

[20] = target: T19, 4H2721-AA; test: two-hybrid library CCmax; conditions: mean of both orientations
T19 chain: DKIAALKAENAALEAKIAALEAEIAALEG

[21] = target: T20, 4H465-AA; test: two-hybrid library CCmax; conditions: mean of both orientations
T20 chain: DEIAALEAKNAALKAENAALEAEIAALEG

[22] = target: T21, 4H2898-AA; test: two-hybrid library CCmax; conditions: mean of both orientations
T21 chain: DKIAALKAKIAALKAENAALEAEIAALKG

[23] = target: 4H_GCN4; test: two-hybrid library CCmax
Chain of 4H_GCN4 (chain, as listed by the source): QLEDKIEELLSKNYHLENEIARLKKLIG

[24] = target: T22, 4H3020-AA; test: two-hybrid library CCmax; conditions: mean of both orientations
T22 chain: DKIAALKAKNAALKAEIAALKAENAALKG

[25] = target: T23, 4H_BCR; test: two-hybrid library CCmax; conditions: mean of both orientations
T23 chain: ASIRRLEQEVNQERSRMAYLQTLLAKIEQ

[26] = target: T24, 4H3651-AA; test: two-hybrid library CCmax; conditions: mean of both orientations
T24 chain: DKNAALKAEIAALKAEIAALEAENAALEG

[27] = target: T25, 4H1110-AA; test: two-hybrid library CCmax
T25 chain: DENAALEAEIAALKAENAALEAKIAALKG

[28] = target: GCN2_T; test: two-hybrid library CCmax
[29] = target: T26, 4H1802-AA; test: two-hybrid library CCmax; conditions: mean of both orientations
T26 chain: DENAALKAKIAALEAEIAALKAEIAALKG

[30] = target: T27, 4H355-AA; test: two-hybrid library CCmax; conditions: mean of both orientations
T27 chain: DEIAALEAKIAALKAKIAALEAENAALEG

[31] = target: T28, 4H2600-AA; test: two-hybrid library CCmax; conditions: mean of both orientations
T28 chain: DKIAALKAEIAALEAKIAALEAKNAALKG

[32] = target: T29, 4H3782-AA; test: two-hybrid library CCmax; conditions: mean of both orientations
T29 chain: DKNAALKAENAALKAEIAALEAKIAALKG

[33] = target: T30, 4H2750-AA; test: two-hybrid library CCmax; conditions: mean of both orientations
T30 chain: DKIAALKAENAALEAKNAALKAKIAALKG

[34] = target: T31, 4H3705-AA; test: two-hybrid library CCmax; conditions: mean of both orientations
T31 chain: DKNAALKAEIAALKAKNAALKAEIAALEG

[35] = target: T32, 4H895-AA; test: two-hybrid library CCmax; conditions: mean of both orientations
T32 chain: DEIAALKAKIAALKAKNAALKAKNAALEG

[36] = target: T33, 4H_APH; test: two-hybrid library CCmax; conditions: mean of both orientations
T33 chain: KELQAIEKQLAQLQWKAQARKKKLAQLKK

[37] = target: T34, Core_NNIN-es_KKEE; test: two-hybrid library CCmax; conditions: mean of both orientations
T34 chain: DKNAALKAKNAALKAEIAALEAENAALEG

[38] = target: T35, Core_IINN-es_KKKE; test: two-hybrid library CCmax; conditions: mean of both orientations
T35 chain: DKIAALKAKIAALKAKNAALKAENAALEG

[39] = target: T36, 4H2619-bA; test: two-hybrid library CCNG1
T36 chain: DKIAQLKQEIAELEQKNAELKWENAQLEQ

[40] = target: T37, 4H344-bA; test: two-hybrid library CCNG1
T37 chain: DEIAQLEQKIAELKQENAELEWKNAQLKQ

[41] = target: T38, 4H363-bA; test: two-hybrid library CCNG1
T38 chain: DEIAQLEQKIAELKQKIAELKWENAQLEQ

[42] = target: T39, 4H1046-bA; test: two-hybrid library CCNG1; conditions: mean of both orientations
T39 chain: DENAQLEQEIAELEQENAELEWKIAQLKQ

[43] = target: T40, 4H2568-bA; test: two-hybrid library CCNG1
T40 chain: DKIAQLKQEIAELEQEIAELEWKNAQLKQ

[44] = target: T41, 4H3961-bA; test: two-hybrid library CCNG1; conditions: mean of both orientations
T41 chain: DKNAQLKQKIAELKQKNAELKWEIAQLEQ

[45] = target: T42, 4H1072-bA; test: two-hybrid library CCNG1
T42 chain: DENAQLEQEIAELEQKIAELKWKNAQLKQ

[46] = target: T43, 4H2745-bA; test: two-hybrid library CCNG1
T43 chain: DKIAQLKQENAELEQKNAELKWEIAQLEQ

[47] = target: T44, 4H470-bA; test: two-hybrid library CCNG1
T44 chain: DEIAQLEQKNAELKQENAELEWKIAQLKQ

[48] = target: T45, 4H3907-bA; test: two-hybrid library CCNG1
T45 chain: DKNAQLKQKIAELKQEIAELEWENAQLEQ

[49] = target: T46, P6bH1; test: two-hybrid library CCNG1
T46 chain: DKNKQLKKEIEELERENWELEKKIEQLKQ

[50] = target: T47, P5bH1; test: two-hybrid library CCNG1
T47 chain: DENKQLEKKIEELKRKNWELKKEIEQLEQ

[51] = target: T48, P4bH1; test: two-hybrid library CCNG1
T48 chain: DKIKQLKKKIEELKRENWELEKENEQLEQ

[52] = target: T49, P3bH1; test: two-hybrid library CCNG1
T49 chain: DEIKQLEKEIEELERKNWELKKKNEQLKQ

[53] = target: T50, P7bH1; test: two-hybrid library CCNG1
T50 chain: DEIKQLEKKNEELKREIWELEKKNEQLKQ

[54] = target: T51, P1bH1; test: two-hybrid library CCNG1
T51 chain: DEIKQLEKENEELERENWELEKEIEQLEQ

[55] = target: T52, P12bH1; test: two-hybrid library CCNG1
T52 chain: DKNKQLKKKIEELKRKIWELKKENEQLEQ

[56] = target: T53, P11bH1; test: two-hybrid library CCNG1
T53 chain: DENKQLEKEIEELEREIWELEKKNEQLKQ

[57] = target: T54, P9bH1; test: two-hybrid library CCNG1
T54 chain: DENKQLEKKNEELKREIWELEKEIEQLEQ

[58] = target: T55, P8bH1; test: two-hybrid library CCNG1
T55 chain: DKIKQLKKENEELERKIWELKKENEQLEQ

[59] = target: T56, P2bH1; test: two-hybrid library CCNG1
T56 chain: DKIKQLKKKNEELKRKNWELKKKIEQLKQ

[60] = target: T57, P10bH1; test: two-hybrid library CCNG1
T57 chain: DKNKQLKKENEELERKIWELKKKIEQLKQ

interaction score [1]: 0.234
Binder: DENAALEAENAALEAKNAALKAKNAALKG [Core_NNNN-es_EEKK]

interaction score [2]: 1.68
Binder: DENAALEAEIAALEAEIAALEAENAALEG [Core_NIIN-es_EEEE]

interaction score [3]: 1.83
Binder: DEIAALEAKNAALKAEIAALEAEIAALEG [Core_INII-es_EKEE]

interaction score [4]: -0.668
Binder: DENAALEAKNAALKAENAALEAKNAALKG [Core_NNNN-es_EKEK]

interaction score [5]: 2.18
Binder: DEIAALEAENAALEAENAALEAENAALEG [Core_INNN-es_EEEE]

interaction score [8]: 2.01
Binder: DEIAALEAENAALEAENAALEAKNAALKG [Core_INNN-es_EEEK]

interaction score [9]: 2.03
Binder: DEIAALEAENAALEAKIAALKAKNAALKG [Core_ININ-es_EEKK]

interaction score [11]: 2.03
Binder: DEIAALEAENAALEAKNAALKAEIAALEG [Core_INNI-es_EEKE]

interaction score [12]: 1.84
Binder: DEIAALEAENAALEAKNAALKAENAALEG [Core_INNN-es_EEKE]

interaction score [37]: 1.83
Binder: DENAALEAENAALEAKIAALKAKNAALKG [Core_NNIN-es_EEKK]

Further lines, the binder ahead of its results:

Binder: DEIQQLEEEISQLEYKNYALKAKNEELKR [P3SC1]
interaction score [6]: 2.22
interaction score [7]: 1.43

Binder: DEIAALEAKIAALKAKNAALKAENAALEG [Core_IINN-es_EKKE]
interaction score [10]: 1.87

Binder: DENAALEAEIAALKAENAALEAKIAALKG [4H1110-AA]
interaction score [13]: 1.28
interaction score [14]: -0.798
interaction score [15]: 1.93
interaction score [16]: -1.2
interaction score [17]: -1.14
interaction score [18]: -1.39
interaction score [19]: -1.36
interaction score [20]: -0.718
interaction score [21]: -1.11
interaction score [22]: 1.96
interaction score [23]: -0.932
interaction score [24]: 1.51
interaction score [25]: 0.0686
interaction score [26]: -1.2
interaction score [27]: 0.405
interaction score [28]: -0.988
interaction score [29]: -1.32
interaction score [30]: -0.0666
interaction score [31]: -1.01
interaction score [32]: -0.707
interaction score [33]: -0.176
interaction score [34]: 2.63
interaction score [35]: 0.133
interaction score [36]: -1.53

Binder: DEIAALEAEIAALEAENAALEAKNAALKG [Core_IINN-es_EEEK]
interaction score [38]: 2.03

Binder: DENAQLEQEIAELEQENAELEWKIAQLKQ [4H1046-bA]
interaction score [39]: -0.535
interaction score [40]: -0.743
interaction score [41]: 0.269
interaction score [42]: -0.316
interaction score [43]: -1.17
interaction score [44]: 1.98
interaction score [45]: -0.435
interaction score [46]: 0.103
interaction score [47]: 0.412
interaction score [48]: -0.392

Binder: DKNKQLKKENEELERKIWELKKKIEQLKQ [P10bH1]
interaction score [49]: 0.126
interaction score [50]: -0.973
interaction score [51]: -0.889
interaction score [52]: 1.35
interaction score [53]: 0.654
interaction score [54]: 1.14
interaction score [55]: -0.838
interaction score [56]: 0.862
interaction score [57]: 1.04
interaction score [58]: -0.375
interaction score [59]: -1.33
interaction score [60]: 0.178
